# Results published in patent US20210380660A1 (OREGON HEALTH AND SCIENCE UNIVERSITY, published 2021).
# T1: recombinant human CD74 (C27S) (human, UniProt P04233 1-216)
# T1 chain: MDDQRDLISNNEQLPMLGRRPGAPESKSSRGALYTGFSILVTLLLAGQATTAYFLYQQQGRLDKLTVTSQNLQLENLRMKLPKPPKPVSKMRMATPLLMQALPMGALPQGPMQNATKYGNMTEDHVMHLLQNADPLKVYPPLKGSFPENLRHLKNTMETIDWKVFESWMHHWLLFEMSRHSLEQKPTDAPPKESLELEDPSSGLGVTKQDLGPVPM
# T2: mouse CD74 (mouse, UniProt P04441-2 1-215, limits assumed)
# T2 construct: Native protein pulled down from splenocyte lysate; also called mCD74; immunoprecipitated mouse CD74
# T2 sequence (looked up): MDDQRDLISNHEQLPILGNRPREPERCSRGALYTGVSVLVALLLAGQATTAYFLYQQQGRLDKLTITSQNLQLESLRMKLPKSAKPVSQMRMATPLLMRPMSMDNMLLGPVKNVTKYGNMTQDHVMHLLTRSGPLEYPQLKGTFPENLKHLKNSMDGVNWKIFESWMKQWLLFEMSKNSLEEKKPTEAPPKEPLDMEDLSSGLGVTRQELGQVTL
# Assays:
# [1] = target: T1, recombinant human CD74 (C27S); assay: competition ELISA: MIF coated, rhCD74 with serially diluted construct, bound rhCD74 detected
# [2] = target: T1, recombinant human CD74 (C27S); assay: competition ELISA against MIF for rhCD74
# [3] = target: T1, recombinant human CD74 (C27S); assay: direct binding ELISA, rhCD74 (C27S) coated, construct detected with anti-MOG antibody, one-site fit
# [4] = target: T1, recombinant human CD74 (C27S); assay: direct binding ELISA on rhCD74 (legend of FIG. 6A)
# [5] = target: T2, mouse CD74; assay: competition with FITC-labelled P2 peptide on immunoprecipitated mouse CD74, gel densitometry, one-site fit
# Experimental: For competition experiments, ELISA plates were coated with MIF at room temperature at a concentration of 0.5 μg/ml in TBS. Plates were then blocked overnight with 5% BSA in TBS and 0.0125% T20 followed by the addition of a competitive mix containing rhCD74 with serially diluted DRα1 constructs prepared in 5% BSA/TBS plus 0.0125% T20 for 1.5 hours at 25° C. Bound rhCD74 was detected with a monoclonal antibody that specifically recognizes human CD74 in a region away from the putative MIF/D-DT binding site. Absorbance at 450 nm was determined and data were analyzed with Prism, the parameters were calculated with the competition equation included in the software. For competition between DRα1-hMOG-35-55 and P2 peptide (see next section), mouse CD74 was immunoprecipitated from DR*1501 Tg mouse splenocytes and a competition experiment was set. 2.5 μl of P2 peptide were used with increasing concentrations of DRα1-hMOG-35-55 protein. Bound peptide was eluted from the immunoprecipitation with 2% SDS and analyzed in a 16.5% PAG Tris/Tricine. The gel was scanned for FITC and fluorescence was quantified by densitometry. P2 fluorescence vs. DRα1 competitor was plotted and data analyzed with Prism. The relative density values were fit to a One-binding site equation. […]
Binder,IC50 [1],IC50 [2],Kd [3],Kd [4],Kd [5]
"DRhQ (other, Made in E. coli; also called DRα1-hMOG-35-55 with glutamine substitution; L50Q) MEVGWYRPPFSRVVHLYRNGKGGGGSLVPRGSGGGGIKEEHVIIQAEFYQNPDQSGEFMFDFDGDEIFHVDMAKKETVWRLEEFGRFASFEAQGALANIAVDKANLEIMTKRSNYTPITN",298 nM,280 nM,91.1 nM,89 nM,
"DRα1-hMOG-35-55 (other, also called DRα1-human(h)MOG-35-55; DRα1 with human MOG-35-55 peptide) MEVGWYRPPFSRVVHLYRNGKGGGGSLVPRGSGGGGIKEEHVIIQAEFYLNPDQSGEFMFDFDGDEIFHVDMAKKETVWRLEEFGRFASFEAQGALANIAVDKANLEIMTKRSNYTPITN",1640 nM,1600 nM,702 nM,650 nM,750 nM
"DRα1-mMOG-35-55 (other, also called DRα1 with mouse MOG-35-55 peptide) MEVGWYRSPFSRVVHLYRNGKGGGGSLVPRGSGGGGIKEEHVIIQAEFYLNPDQSGEFMFDFDGDEIFHVDMAKKETVWRLEEFGRFASFEAQGALANIAVDKANLEIMTKRSNYTPITN",937 nM,,,,
"DRmQ (other, also called DRα1-mMOG-35-55 with glutamine substitution) MEVGWYRSPFSRVVHLYRNGKGGGGSLVPRGSGGGGIKEEHVIIQAEFYQNPDQSGEFMFDFDGDEIFHVDMAKKETVWRLEEFGRFASFEAQGALANIAVDKANLEIMTKRSNYTPITN",828 nM,,,,
